Reference: paper doi:10.1101/2025.10.26.684595

Experiments:
[1] = biological target: human PIEZO2 in the cryo-EM complexes with MDFIC and MDFIC2 (human) (UniProt Q9H5I5); experiment: cryo-EM structure
[2] = biological target: mouse PIEZO1 in the cryo-EM complex with mouse MDFI (mouse) (UniProt E2JF22); experiment: cryo-EM structure; conditions: remark: other sources report otherwise

Substance	stoichiometry N [1]	stoichiometry N [2]
human PIEZO2 in the cryo-EM complexes with MDFIC and MDFIC2, Q9H5I5	3	
mouse PIEZO1 in the cryo-EM complex with mouse MDFI, E2JF22 1-2547		3
